The target in experiment [1] is porcine brain tubulin (microtubules) (porcine).
Experiment [2] shares this target. The experiment can be described thus: in vitro reconstitution with TIRF microscopy; microtubules nucleated from and anchored at γ-TuC (GCP3–GFP) held by anti-GFP nanobody; 25 µM tubulin, 80 mM KCl, MRB80, 30 °C; 5 nM SNAP–AF647–CAMSAP3, 5 nM SNAP–AF647–CAMSAP1 or 40 nM mCherry–CAMSAP2; scored over 10 min.
Experiment [3] addresses γ-tubulin-containing complexes (complete and incomplete γ-TuRC) purified using GCP3–GFP–SII (human (endogenous in HEK293T)) (UniProt Q96CW5). Nature of the experiment: single-molecule colocalisation by TIRF microscopy; NPF pre-incubated with γ-TuC–GFP or GFP control ('Premix'), then held on the coverslip by biotinylated anti-GFP nanobody; without tubulin.
Sequence of UniProt Q96CW5 (Q96CW5 whole entry, looked up, one chain of several): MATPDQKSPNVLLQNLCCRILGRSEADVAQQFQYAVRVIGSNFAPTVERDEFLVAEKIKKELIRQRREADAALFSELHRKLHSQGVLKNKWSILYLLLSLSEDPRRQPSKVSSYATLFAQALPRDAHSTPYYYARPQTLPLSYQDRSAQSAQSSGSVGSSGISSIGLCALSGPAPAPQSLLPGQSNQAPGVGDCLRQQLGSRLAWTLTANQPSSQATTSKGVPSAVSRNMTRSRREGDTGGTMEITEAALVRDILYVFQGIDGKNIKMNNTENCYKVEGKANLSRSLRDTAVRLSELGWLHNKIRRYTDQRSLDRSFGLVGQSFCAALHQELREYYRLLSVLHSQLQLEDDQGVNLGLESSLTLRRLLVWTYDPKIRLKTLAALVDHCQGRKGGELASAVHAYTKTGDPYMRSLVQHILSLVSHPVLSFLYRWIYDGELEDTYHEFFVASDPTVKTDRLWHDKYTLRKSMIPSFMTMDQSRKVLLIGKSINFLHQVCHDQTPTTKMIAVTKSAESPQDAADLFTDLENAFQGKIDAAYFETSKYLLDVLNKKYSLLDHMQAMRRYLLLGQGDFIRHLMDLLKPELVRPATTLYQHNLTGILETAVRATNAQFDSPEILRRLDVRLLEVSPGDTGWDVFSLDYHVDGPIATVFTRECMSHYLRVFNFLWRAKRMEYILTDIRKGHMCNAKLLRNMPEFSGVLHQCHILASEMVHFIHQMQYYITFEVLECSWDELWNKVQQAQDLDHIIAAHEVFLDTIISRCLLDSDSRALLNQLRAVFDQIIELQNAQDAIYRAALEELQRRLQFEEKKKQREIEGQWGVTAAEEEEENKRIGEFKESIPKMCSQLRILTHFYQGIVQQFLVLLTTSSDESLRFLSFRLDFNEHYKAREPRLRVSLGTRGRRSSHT
Experiment [4] has the same target.
For experiment [5] the target is unchanged. The experiment can be described thus: single-molecule colocalisation by TIRF microscopy; γ-TuC–GFP held on the coverslip by biotinylated anti-GFP nanobody; with free tubulin (17.5 µM, 50 mM KCl, 30 °C); the sentence does not tell whether the NPF was premixed.
Experiment [6] has the same target. The experiment can be described thus: single-molecule colocalisation by TIRF microscopy; NPF pre-incubated with γ-TuC–GFP in solution ('Premix'), then held on the coverslip by biotinylated anti-GFP nanobody; with 17.5 µM tubulin, 50 mM KCl, MRB80, 30 °C.
The target is the same in experiment [7]. The experiment can be described thus: single-molecule colocalisation by TIRF microscopy; NPF pre-incubated with γ-TuC–GFP or GFP control ('Premix'), then held on the coverslip by biotinylated anti-GFP nanobody; without tubulin. The source holds these as a separate data set.
Experiment [8] shares this target. The experiment can be described thus: single-molecule colocalisation by TIRF microscopy; γ-TuC–GFP held on the coverslip by biotinylated anti-GFP nanobody; with free tubulin (17.5 µM, 50 mM KCl, 30 °C); the sentence does not tell whether the NPF was premixed. This is another data set of the same source.
Experiment [9] addresses porcine brain tubulin (microtubules) (porcine). The experiment can be described thus: in vitro reconstitution with TIRF microscopy; microtubules nucleated from and anchored at γ-TuC (GCP3–GFP) held by anti-GFP nanobody; 25 µM tubulin, 80 mM KCl, MRB80, 30 °C; 5 nM SNAP–AF647–CAMSAP3, 5 nM SNAP–AF647–CAMSAP1 or 40 nM mCherry–CAMSAP2; scored over 10 min. The source holds these as a separate data set.

Where two headings read alike, the source gives them in different places.

Turning to “SNAP–AF647–CAMSAP1 (from UniProt Q5T5Y3 1-1602) (natural protein)”, the γ-TuC displacement frequency (microtubules released among γ-TuC-anchored minus ends colocalizing with the CAMSAP) in [1] was determined as 5%. In experiment [2], this molecule returned a percent of γ-TuC-nucleated microtubules with CAMSAP at the minus end of 25%.

For “mCherry–CDK5RAP2 (from UniProt Q96SN8 1-1893) (natural protein)”, the percent of CDK5RAP2-positive puncta colocalizing with γ-TuCs stood at 41% in experiment [3] and 13% in [5]. For the same molecule, the results for the percent of γ-TuCs colocalizing with CDK5RAP2 in experiment [3] and in experiment [6] were 30% and 38%, respectively. In [4], this molecule displayed a microtubule nucleation efficiency of γ-TuC (percent of γ-TuCs nucleating within 10 min), mCherry–CDK5RAP2 pre-incubated with γ-TuCs of 35%.

On to “chTOG–mCherry (from UniProt Q14008 1-2032) (natural protein)”, for which the percent of chTOG-positive puncta colocalizing with γ-TuC in [3] worked out at 28%; in experiment [5] it was 6%.

B1: mCherry–CLASP2 (natural protein)
chain: MAMGDDKSFDDEESVDGNRPSSAASAFKVPAPKTSGNPANSARKPGSAGGPKVGGASKEGGAGAVDEDDFIKAFTDVPSIQIYSSRELEETLNKIREILSDDKHDWDQRANALKKIRSLLVAGAAQYDCFFQHLRLLDGALKLSAKDLRSQVVREACITVAHLSTVLGNKFDHGAEAIVPTLFNLVPNSAKVMATSGCAAIRFIIRHTHVPRLIPLITSNCTSKSVPVRRRSFEFLDLLLQEWQTHSLERHAAVLVETIKKGIHDADAEARVEARKTYMGLRNHFPGEAETLYNSLEPSYQKSLQTYLKSSGSVASLPQSDRSSSSSQESLNRPFSSKWSTANPSTVAGRVSAGSSKASSLPGSLQRSRSDIDVNAAAGAKAHHAAGQSVRSGRLGAGALNAGSYASLEDTSDKLDGTASEDGRVRAKLSAPLAGMGNAKADSRGRSRTKMVSQSQPGSRSGSPGRVLTTTALSTVSSGVQRVLVNSASAQKRSKIPRSQGCSREASPSRLSVARSSRIPRPSVSQGCSREASRESSRDTSPVRSFQPLASRHHSRSTGALYAPEVYGASGPGYGISQSSRLSSSVSAMRVLNTGSDVEEAVADALKKPARRRYESYGMHSDDDANSDASSACSERSYSSRNGSIPTYMRQTEDVAEVLNRCASSNWSERKEGLLGLQNLLKNQRTLSRVELKRLCEIFTRMFADPHGKRVFSMFLETLVDFIQVHKDDLQDWLFVLLTQLLKKMGADLLGSVQAKVQKALDVTRESFPNDLQFNILMRFTVDQTQTPSLKVKVAILKYIETLAKQMDPGDFINSSETRLAVSRVITWTTEPKSSDVRKAAQSVLISLFELNTPEFTMLLGALPKTFQDGATKLLHNHLRNTGNGTQSSMGSPLTRPTPRSPANWSSPLTSPTNTSQNTLSPSAFDYDTENMNSEDIYSSLRGVTEAIQNFSFRSQEDMNEPLKRDSKKDDGDSMCGGPGMSDPRAGGDATDSSQTALDNKASLLHSMPTHSSPRSRDYNPYNYSDSISPFNKSALKEAMFDDDADQFPDDLSLDHSDLVAELLKELSNHNERVEERKIALYELMKLTQEESFSVWDEHFKTILLLLLETLGDKEPTIRALALKVLREILRHQPARFKNYAELTVMKTLEAHKDPHKEVVRSAEEAASVLATSISPEQCIKVLCPIIQTADYPINLAAIKMQTKVIERVSKETLNLLLPEIMPGLIQGYDNSESSVRKACVFCLVAVHAVIGDELKPHLSQLTGSKMKLLNLYIKRAQTGSGGADPTTDVSGQS
Regarding B1, the percent colocalization with γ-TuC in experiment [7] and in experiment [8] was 72% each time.

B2: mCherry–CAMSAP2 (natural protein)
chain: MGDAADPREMRKTFIVPAIKPFDHYDFSRAKIACNLAWLVAKAFGTENVPEELQEPFYTDQYDQEHIKPPVVNLLLSAELYCRAGSLILKSDAAKPLLGHDAVIQALAQKGLYVTDQEKLVTERDLHKKPIQMSAHLAMIDTLMMAYTVEMVSIEKVIACAQQYSAFFQATDLPYDIEDAVMYWINKVNEHLKDIMEQEQKLKEHHTVEAPGGQKSPSKWFWKLVPARYRKEQTLLKQLPCIPLVENLLKDGTDGCALAALIHFYCPDVVRLEDICLKETMSLADSLYNLQLIQEFCQEYLNQCCHFTLEDMLYAASSIKSNYLVFMAELFWWFEVVKPSFVQPRVVRPQGAEPVKDMPSIPVLNAAKRNVLDSSSDFPSSGEGATFTQSHHHLPSRYSRPQAHSSASGGIRRSSSMSYVDGFIGTWPKEKRSSVHGVSFDISFDKEDSVQRSTPNRGITRSISNEGLTLNNSHVSKHIRKNLSFKPINGEEEAESIEEELNIDSHSDLKSCVPLNTNELNSNENIHYKLPNGALQNRILLDEFGNQIETPSIEEALQIIHDTEKSPHTPQPDQIANGFFLHSQEMSILNSNIKLNQSSPDNVTDTKGALSPITDNTEVDTGIHVPSEDIPETMDEDSSLRDYTVSLDSDMDDASKFLQDYDIRTGNTREALSPCPSTVSTKSQPGSSASSSSGVKMTSFAEQKFRKLNHTDGKSSGSSSQKTTPEGSELNIPHVVAWAQIPEETGLPQGRDTTQLLASEMVHLRMKLEEKRRAIEAQKKKMEAAFTKQRQKMGRTAFLTVVKKKGDGISPLREEAAGAEDEKVYTDRAKEKESQKTDGQRSKSLADIKESMENPQAKWLKSPTTPIDPEKQWNLASPSEETLNEGEILEYTKSIEKLNSSLHFLQQEMQRLSLQQEMLMQMREQQSWVISPPQPSPQKQIRDFKPSKQAGLSSAIAPFSSDSPRPTHPSPQSSNRKSASFSVKSQRTPRPNELKITPLNRTLTPPRSVDSLPRLRRFSPSQVPIQTRSFVCFGDDGEPQLKESKPKEEVKKEELESKGTLEQRGHNPEEKEIKPFESTVSEVLSLPVTETVCLTPNEDQLNQPTEPPPKPVFPPTAPKNVNLIEVSLSDLKPPEKADVPVEKYDGESDKEQFDDDQKVCCGFFFKDDQKAENDMAMKRAALLEKRLRREKETQLRKQQLEAEMEHKKEETRRKTEEERQKKEDERARREFIRQEYMRRKQLKLMEDMDTVIKPRPQVVKQKKQRPKSIHRDHIESPKTPIKGPPVSSLSLASLNTGDNESVHSGKRTPRSESVEGFLSPSRCGSRNGEKDWENASTTSSVASGTEYTGPKLYKEPSAKSNKHIIQNALAHCCLAGKVNEGQKKKILEEMEKSDANNFLILFRDSGCQFRSLYTYCPETEEINKLTGIGPKSITKKMIEGLYKYNSDRKQFSHIPAKTLSASVDAITIHSHLWQTKRPVTPKKLLPTKA
In experiment [9], B2 displayed a percent of γ-TuC-nucleated microtubules with CAMSAP at the minus end of 15%. In addition, in experiment [1], the γ-TuC displacement frequency (microtubules released among γ-TuC-anchored minus ends colocalizing with the CAMSAP) was found to be 90%.

Values taken from paper PMC10940162.
